Laboratory results reported in paper PMC7352787.

Key:
[1] = target: membrane-bound HLA-G*01:04 on K562 cells (human); assay: flow cytometry on cells; 1 x 10^6 K562 cells presenting HLA-G*01:0x incubated with 200 nM purified sNKG2A/CD94 or sNKG2C/CD94 for 2 h at 37 °C; detection by anti-V5-tag antibody and PE-coupled secondary antibody; three technical replicates
[2] = target: membrane-bound HLA-G*01:03 on K562 cells (human); assay: as above

Work on “recombinant soluble heterodimeric NKG2A/CD94 (from UniProt P26715 1-233; Q13241 1-179) (complex)” yielded a percent binding (flow cytometry) [1] of 57.7% and a percent binding (flow cytometry) [2] of 17.4%.
